Data as given in paper PMC10397247.
Like-named read-outs stand apart in the source and are kept apart here.

T1: 4H717-AA
T1 chain: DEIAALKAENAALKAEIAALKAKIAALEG

T2: 4H678-AA
T2 chain: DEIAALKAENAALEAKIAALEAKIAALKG

T3: 4H3655-AA
T3 chain: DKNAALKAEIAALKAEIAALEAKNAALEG

T4: 4H794-AA
T4 chain: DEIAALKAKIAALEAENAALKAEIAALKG

T5: 4H780-AA
T5 chain: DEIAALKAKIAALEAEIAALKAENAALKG

T6: 4H566-AA
T6 chain: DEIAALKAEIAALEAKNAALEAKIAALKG

T7: 4H3921-AA
T7 chain: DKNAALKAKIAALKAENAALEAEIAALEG

T8: 4H993-AA
T8 chain: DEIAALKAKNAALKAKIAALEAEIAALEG

T9: 4H3627-AA
T9 chain: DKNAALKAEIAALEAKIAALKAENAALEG

T10: 4H48-AA
T10 chain: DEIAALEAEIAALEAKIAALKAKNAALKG

T11: 4H906-AA
T11 chain: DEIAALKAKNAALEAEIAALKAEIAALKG

T12: 4H605-AA
T12 chain: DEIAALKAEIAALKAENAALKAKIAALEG

T13: 4H3427-AA
T13 chain: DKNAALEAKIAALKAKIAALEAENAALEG

T14: 4H454-AA
T14 chain: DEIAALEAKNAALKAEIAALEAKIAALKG

T15: 4H3606-AA
T15 chain: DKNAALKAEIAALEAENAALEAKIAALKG

T16: 4H342-AA
T16 chain: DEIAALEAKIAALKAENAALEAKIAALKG

T17: 4H429-AA
T17 chain: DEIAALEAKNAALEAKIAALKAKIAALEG

T18: 4H881-AA
T18 chain: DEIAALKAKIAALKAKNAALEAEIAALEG

T19: 4H3844-AA
T19 chain: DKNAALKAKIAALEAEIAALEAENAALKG

T20: 4H909-AA
T20 chain: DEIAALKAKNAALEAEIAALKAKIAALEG

T21: 4H536-AA
T21 chain: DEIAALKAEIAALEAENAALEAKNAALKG

T22: 4H930-AA
T22 chain: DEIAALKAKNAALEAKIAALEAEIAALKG

T23: 4H629-AA
T23 chain: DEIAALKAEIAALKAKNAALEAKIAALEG

T24: 4H458-AA
T24 chain: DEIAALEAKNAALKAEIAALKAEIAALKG

T25: 4H94-AA
T25 chain: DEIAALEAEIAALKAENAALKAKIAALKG

T26: 4H570-AA
T26 chain: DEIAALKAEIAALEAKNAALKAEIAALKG

T27: 4H891-AA
T27 chain: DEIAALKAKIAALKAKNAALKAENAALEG

T28: 4H3753-AA
T28 chain: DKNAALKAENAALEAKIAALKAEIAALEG

T29: 4H797-AA
T29 chain: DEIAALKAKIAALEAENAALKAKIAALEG

T30: 4H485-AA
T30 chain: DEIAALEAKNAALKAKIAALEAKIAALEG

T31: 4H745-AA
T31 chain: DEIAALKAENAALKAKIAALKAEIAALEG

T32: 4H710-AA
T32 chain: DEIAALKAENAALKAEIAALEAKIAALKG

T33: 4H850-AA
T33 chain: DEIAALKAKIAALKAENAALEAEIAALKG

T34: 4H3865-AA
T34 chain: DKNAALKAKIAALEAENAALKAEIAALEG

T35: 4H656-AA
T35 chain: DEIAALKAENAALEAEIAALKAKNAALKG

T36: 4H906-bH
T36 chain: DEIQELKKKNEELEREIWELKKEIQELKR

T37: 4H675-AA
T37 chain: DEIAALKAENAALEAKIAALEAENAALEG

T38: 4H971-AA
T38 chain: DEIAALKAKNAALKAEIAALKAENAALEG

T39: 4H982-AA
T39 chain: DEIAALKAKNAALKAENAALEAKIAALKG

B1: 4H342-AA (peptide)
chain: DEIAALEAKIAALKAENAALEAKIAALKG
B2: 4H3655-AA (peptide)
chain: DKNAALKAEIAALKAEIAALEAKNAALEG
B3: 4H3753-AA (peptide)
chain: DKNAALKAENAALEAKIAALKAEIAALEG
B4: 4H3844-AA (peptide)
chain: DKNAALKAKIAALEAEIAALEAENAALKG
B5: 4H3921-AA (peptide)
chain: DKNAALKAKIAALKAENAALEAEIAALEG
B6: 4H906-bH (peptide)
chain: DEIQELKKKNEELEREIWELKKEIQELKR
B7: 4H675-AA (peptide)
chain: DEIAALKAENAALEAKIAALEAENAALEG
B8: 4H656-AA (peptide)
chain: DEIAALKAENAALEAEIAALKAKNAALKG
B9: 4H982-AA (peptide)
chain: DEIAALKAKNAALKAENAALEAKIAALKG

Experiments:
4H717-AA = molecular target: T1, 4H717-AA; experiment: two-hybrid library CCmax; settings: mean of both orientations;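 further: natural log of median RNA to DNA barcode read ratio; higher means stronger binding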
4H678-AA = molecular target: T2, 4H678-AA; experiment: two-hybrid library CCmax; settings: mean of both orientations;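 further: natural log of median RNA to DNA barcode read ratio; higher means stronger binding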
4H3655-AA = molecular target: T3, 4H3655-AA; experiment: two-hybrid library CCmax;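 further: natural log of median RNA to DNA barcode read ratio; higher means stronger binding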
4H794-AA = molecular target: T4, 4H794-AA; experiment: two-hybrid library CCmax; settings: mean of both orientations;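 further: natural log of median RNA to DNA barcode read ratio; higher means stronger binding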
4H780-AA = molecular target: T5, 4H780-AA; experiment: two-hybrid library CCmax; settings: mean of both orientations
4H566-AA = molecular target: T6, 4H566-AA; experiment: two-hybrid library CCmax; settings: mean of both orientations
4H3921-AA = molecular target: T7, 4H3921-AA; experiment: two-hybrid library CCmax
4H993-AA = molecular target: T8, 4H993-AA; experiment: two-hybrid library CCmax; settings: mean of both orientations
4H3627-AA = molecular target: T9, 4H3627-AA; experiment: two-hybrid library CCmax; settings: mean of both orientations
4H48-AA = molecular target: T10, 4H48-AA; experiment: two-hybrid library CCmax; settings: mean of both orientations
4H906-AA = molecular target: T11, 4H906-AA; experiment: two-hybrid library CCmax; settings: mean of both orientations
4H605-AA = molecular target: T12, 4H605-AA; experiment: two-hybrid library CCmax; settings: mean of both orientations
4H3427-AA = molecular target: T13, 4H3427-AA; experiment: two-hybrid library CCmax; settings: mean of both orientations
4H454-AA = molecular target: T14, 4H454-AA; experiment: two-hybrid library CCmax; settings: mean of both orientations
4H3606-AA = molecular target: T15, 4H3606-AA; experiment: two-hybrid library CCmax; settings: mean of both orientations
4H342-AA = molecular target: T16, 4H342-AA; experiment: two-hybrid library CCmax
4H429-AA = molecular target: T17, 4H429-AA; experiment: two-hybrid library CCmax; settings: mean of both orientations
4H881-AA = molecular target: T18, 4H881-AA; experiment: two-hybrid library CCmax; settings: mean of both orientations
4H3844-AA = molecular target: T19, 4H3844-AA; experiment: two-hybrid library CCmax
4H909-AA = molecular target: T20, 4H909-AA; experiment: two-hybrid library CCmax; settings: mean of both orientations
4H536-AA = molecular target: T21, 4H536-AA; experiment: two-hybrid library CCmax; settings: mean of both orientations
4H930-AA = molecular target: T22, 4H930-AA; experiment: two-hybrid library CCmax; settings: mean of both orientations
4H629-AA = molecular target: T23, 4H629-AA; experiment: two-hybrid library CCmax; settings: mean of both orientations
4H458-AA = molecular target: T24, 4H458-AA; experiment: two-hybrid library CCmax; settings: mean of both orientations
4H94-AA = molecular target: T25, 4H94-AA; experiment: two-hybrid library CCmax; settings: mean of both orientations
4H570-AA = molecular target: T26, 4H570-AA; experiment: two-hybrid library CCmax; settings: mean of both orientations
4H891-AA = molecular target: T27, 4H891-AA; experiment: two-hybrid library CCmax; settings: mean of both orientations
4H3753-AA = molecular target: T28, 4H3753-AA; experiment: two-hybrid library CCmax
4H797-AA = molecular target: T29, 4H797-AA; experiment: two-hybrid library CCmax; settings: mean of both orientations
4H485-AA = molecular target: T30, 4H485-AA; experiment: two-hybrid library CCmax; settings: mean of both orientations
4H745-AA = molecular target: T31, 4H745-AA; experiment: two-hybrid library CCmax; settings: mean of both orientations
4H710-AA = molecular target: T32, 4H710-AA; experiment: two-hybrid library CCmax; settings: mean of both orientations
4H850-AA = molecular target: T33, 4H850-AA; experiment: two-hybrid library CCmax; settings: mean of both orientations
4H3865-AA = molecular target: T34, 4H3865-AA; experiment: two-hybrid library CCmax; settings: mean of both orientations
4H656-AA = molecular target: T35, 4H656-AA; experiment: two-hybrid library CCmax
4H906-bH = molecular target: T36, 4H906-bH; experiment: two-hybrid library CCNG1
4H675-AA = molecular target: T37, 4H675-AA; experiment: two-hybrid library CCmax
4H971-AA = molecular target: T38, 4H971-AA; experiment: two-hybrid library CCmax; settings: mean of both orientations
4H982-AA = molecular target: T39, 4H982-AA; experiment: two-hybrid library CCmax

Binder	interaction score (4H717-AA)	interaction score (4H678-AA)	interaction score (4H794-AA)	interaction score (4H780-AA)	interaction score (4H566-AA)	interaction score (4H3921-AA; mean of both orientations)	interaction score (4H993-AA)	interaction score (4H48-AA)	interaction score (4H906-AA)	interaction score (4H605-AA)	interaction score (4H454-AA)	interaction score (4H429-AA)	interaction score (4H881-AA)	other results
B1	-1.4	0.227	1.25	-1.58	2.31	0.975	1.17	-0.491	-1.52	1.41	2.21	-0.49	2.49	interaction score (4H3655-AA; mean of both orientations): -0.61; interaction score (4H3627-AA): 0.447; interaction score (4H3427-AA): -1.15; interaction score (4H3606-AA): 1.55; interaction score (4H342-AA): 1.54; interaction score (4H3844-AA; mean of both orientations): 0.569
B2	-1.27	-0.956	-1.61	-1.83	-1.03	-1.55	-1.32	0.736	-1.03	-1.25	-0.827	-1.13	-0.202	interaction score (4H3655-AA): 0.24; interaction score (4H3844-AA; mean of both orientations): -1.26
B3														interaction score (4H909-AA): -0.932; interaction score (4H536-AA): -1.2; interaction score (4H930-AA): -1.43; interaction score (4H629-AA): -1.7; interaction score (4H458-AA): 1.56; interaction score (4H94-AA): -1.45; interaction score (4H570-AA): -1; interaction score (4H891-AA): -1.97; interaction score (4H3753-AA): -0.536; interaction score (4H797-AA): -1.42; interaction score (4H485-AA): 1.4; interaction score (4H745-AA): -0.67; interaction score (4H710-AA): 2.05; interaction score (4H850-AA): -2; interaction score (4H3865-AA): -1.43
B4	-1.65	0.663	-1.33	0.995	-1.77	-1.65	-1.76	1.16	-1.43	-1.48	-0.212	-0.665	-0.992	interaction score (4H656-AA): -1.07; interaction score (4H3844-AA): 0.661
B5	-1.37	-1.4	-0.924	-1.71	0.811		0.874		-1.62	-0.532	0.521	-0.196	-0.834	interaction score (4H3921-AA): -1.67
B6														interaction score (4H906-bH): 0.905
B7														interaction score (4H675-AA): -1.72; interaction score (4H971-AA): 0.0439
B8														interaction score (4H656-AA): 0.334; interaction score (4H675-AA; mean of both orientations): 0.797; interaction score (4H971-AA): 1.93
B9														interaction score (4H982-AA): 0.123
